Source: US20210139545A1 (IBA, published 2021)
Positions count from the first letter of the chain named.

B1: mutein m1-9 (designed binder)
chain: EAGITGTWYNQLGSTFIVTAGADGALTGTYVTARGNAESRYVLTGRYDSAPATDGSGTALGWTVAWKNNYRNAHSATTWSGQYVGGAEARINTQWLLTSGTTEENAGYSTLVGHDTFTKVKPSAAS
B2: mutein“1”-m41 (designed binder)
chain: EAGITGTWYNQLGSTFIVTAGADGALTGTYVTARGNAESRYVLTGRYDSAPATDGSGTALGWTVAWKNNYRNAHSATTWSGQYVGGAEARINTQWLLTSGTTEAWYSTLVGHDTFTKVKPSAAS
notes: Library 3 clone on mutein “1”
B3: mutein“1”-m302 (designed binder)
chain: B2 chain with A104H
notes: Library 7 clone on mutein “1”, 118 and 119 deleted
B4: mutein“1”-m301 (designed binder)
chain: B2 chain with A104H, Y106M
notes: as for B3
B5: mutein“1”-m212 (designed binder)
chain: B2 chain with A104H, Y106L
notes: Library 6 clone on mutein “1”, 118 and 119 deleted
B6: mutein“1”-m207 (designed binder)
chain: B2 chain with A104T, Y106L
notes: as for B5
B7: mutein m402 (designed binder)
chain: B1 chain with V31A, T32C, S39C, E104A, G107W, Y108K
notes: Library 1 clone
B8: mutein m4001 (designed binder)
chain: B1 chain with V31A, T32C, A33G, S39C, E104A, G107W, Y108K
notes: Library 2 clone
B9: mutein“1”-m111 (designed binder)
chain: B1 chain with E104Y, G107L, Y108W
notes: Library 5 clone on mutein “1”
B10: mutein“1”-m36 (designed binder)
chain: B1 chain with E104Y, G107F, Y108M
notes: Library 3 clone on mutein “1”
B11: mutein“1”-m23 (designed binder)
chain: B1 chain with E104Y, G107Y, Y108A
notes: Library 3 clone on mutein “1”
B12: mutein“1”-m4 (designed binder)
chain: B1 chain with E104D, Y108F
notes: Library 3 clone on mutein “1”
B13: mutein“1”-m101 (designed binder)
chain: B1 chain with E104Y, G107F, Y108L
notes: Library 5 clone on mutein “1”
B14: mutein“1”-m45 (designed binder)
chain: B1 chain with E104Y, Y108F
notes: Library 3 clone on mutein “1”

Each binder was assayed against T1, cytochrome b562 with C-terminally fused Strep-tagII (E. coli) (assay: SPR Biacore).
T1 construct: also called Cytb562-StrepII; Cytb562-StrepIII
Description: (§1) The resulting relative immobilized amounts are given in RU (arbitrary units) (column 3). To achieve the low density immobilization both muteins were applied applied at a concentration of 1 μg/ml and a flow rate of 10 μl/min. To achieve the immobilization at higher density, mutein m1-9 was used at a concentration of 20 μg/ml and mutein “1” was used at a concentration of 50 μg/ml. […] Prior to analysis, the fusion protein preparations were dialyzed against Buffer W (100 mM Tris-CI pH8, 150 mM NaCl, 1 mM EDTA), and checked via analytical size exclusion chromatography to be essentially free of aggregates (a content of max. 5% was accepted, in most cases it was below 1%) to ensure to measure the interaction of monovalent fusion proteins with immobilized streptavidin muteins only.
In the case of B1, the “affinity increase relative to mutein “1”” value is reported as ~30 fold.

What follows are binders tested against T2, Green Fluorescent Protein with C-terminal Strep-tagII (Aequorea victoria (Water jellyfish) …, UniProt P42212 1-237 = GFP, limits assumed) (assay: SPR Biacore).
T2 construct: also called GFP-StrepII; GFP-StrepIII
Description: as §1
In the case of B1, the “affinity increase relative to mutein “1”” value is reported as ~10 fold.

What follows are binders tested against T3, E. coli alkaline phosphatase Strep-tag®II fusion protein (E. coli, UniProt P00634 22-471 = phosphatase) (assay: ELISA, mutein coated, BAP-StrepII titrated).
T3 construct: mature; also called BAP-StrepII; BAP-StrepIII
In the case of B2, the “(Δ(A405-A595)/Δt)max” value is reported as 613 mOD, the “KD(mutein“1”)/KDmutein” value is reported as 8.5 and the Kd is reported as 13 nM. With B3 the “(Δ(A405-A595)/Δt)max” value was 726 mOD, the “KD(mutein“1”)/KDmutein” value was 22 and the Kd was 5 nM. B4 was tested, and the “(Δ(A405-A595)/Δt)max” value was 725 mOD, the “KD(mutein“1”)/KDmutein” value was 11 and the Kd was 10 nM. With B5 the “(Δ(A405-A595)/Δt)max” value was 607 mOD, the “KD(mutein“1”)/KDmutein” value was 6.5 and the Kd was 17 nM. With B6 the “(Δ(A405-A595)/Δt)max” value was 493 mOD, the “KD(mutein“1”)/KDmutein” value was 4.1 and the Kd was 27 nM. In the case of B7, the Kd is reported as 92 nM. B8 was tested, and the Kd was 20 nM. For B9, the “(Δ(A405-A595)/Δt)max” value was 492 mOD, the “KD(mutein“1”)/KDmutein” value was 8.5 and the Kd was 13 nM. B10 was tested, and the “(Δ(A405-A595)/Δt)max” value was 945 mOD, the “KD(mutein“1”)/KDmutein” value was 9.2 and the Kd was 12 nM. B11 was tested, and the “(Δ(A405-A595)/Δt)max” value was 968 mOD, the “KD(mutein“1”)/KDmutein” value was 9.2 and the Kd was 12 nM. B12 was tested, and the “(Δ(A405-A595)/Δt)max” value was 716 mOD, the “KD(mutein“1”)/KDmutein” value was 12.2 and the Kd was 9 nM. B13 was tested, and the “(Δ(A405-A595)/Δt)max” value was 589 mOD, the “KD(mutein“1”)/KDmutein” value was 7.9 and the Kd was 14 nM. For B14, the “(Δ(A405-A595)/Δt)max” value was 566 mOD, the “KD(mutein“1”)/KDmutein” value was 6.1 and the Kd was 18 nM.

Each binder was assayed against T3, E. coli alkaline phosphatase … (assay: ELISA, second experiment, mutein coated, BAP-StrepII titrated).
B8 was tested, and the Kd was 27 nM. In the case of B11, the “(Δ(A405-A595)/Δt)max” value is reported as 644 mOD and the Kd is reported as 13 nM. With B12 the “(Δ(A405-A595)/Δt)max” value was 518 mOD and the Kd was 12 nM. In the case of B1, the “(Δ(A405-A595)/Δt)max” value is reported as 1700 mOD and the Kd is reported as 25 nM.

These binders were tested against T1, cytochrome b562 with C-terminally fused … (assay: SPR Biacore T100, mutein immobilised at 170 RU, 1:1 global fit).
Description: (§2) To achieve the immobilization at higher density, mutein m1-9 was used at a concentration of 20 μg/ml and mutein “1” was used at a concentration of 50 μg/ml. […] Prior to analysis, the fusion protein preparations were dialyzed against Buffer W (100 mM Tris-CI pH8, 150 mM NaCl, 1 mM EDTA), and checked via analytical size exclusion chromatography to be essentially free of aggregates (a content of max. 5% was accepted, in most cases it was below 1%) to ensure to measure the interaction of monovalent fusion proteins with immobilized streptavidin muteins only. […] Data were fitted using the kinetic global fit (Langmuir 1:1) and resulting on- and off-rates and deduced dissociation constants are shown in column 4, column 5 and column 6, respectively. BiaCore data were measured by Biaffin GmbH & Co KG, Kassel, Germany.
For B1, the Kd was 586 nM, the koff was 0.041 s⁻¹ and the kon was 70000 M⁻¹ s⁻¹.

What follows are binders tested against T2, Green Fluorescent Protein with … in the same assay as above.
Description: as §2
In the case of B1, the Kd is reported as 32 nM, the koff is reported as 0.0047 s⁻¹ and the kon is reported as 150000 M⁻¹ s⁻¹.

What follows are binders tested against T4, Green Fluorescent Protein with C-terminal di-tag3 in the same assay as above.
T4 construct: also called GFP-di-tag3
Description: as §2
B1 was tested, and the Kd was 0.053 nM, the koff was 1.5e-05 s⁻¹ and the kon was 280000 M⁻¹ s⁻¹.

These binders were tested against T5, cytochrome b562 with C-terminal di-tag3 (E. coli) in the same assay as above.
T5 construct: also called Cytb562-di-tag3
Description: as §2
With B1 the Kd was 0.014 nM, the koff was 1.5e-05 s⁻¹ and the kon was 1e+06 M⁻¹ s⁻¹.

Each binder was assayed against T1, cytochrome b562 with C-terminally fused … (assay: SPR Biacore T100, mutein immobilised at 4350 RU, 1:1 global fit).
Description: as §2
B1 was tested, and the Kd was 485 nM, the koff was 0.025 s⁻¹ and the kon was 52000 M⁻¹ s⁻¹.

These binders were tested against T2, Green Fluorescent Protein with … in the same assay as above.
Description: as §2
B1 showed a Kd of 23 nM, a koff of 0.0038 s⁻¹ and a kon of 170000 M⁻¹ s⁻¹.

What follows are binders tested against T4, Green Fluorescent Protein with … in the same assay as above.
Description: as §2
For B1, the Kd was 0.079 nM, the koff was 1.7e-05 s⁻¹ and the kon was 220000 M⁻¹ s⁻¹.

What follows are binders tested against T5, cytochrome b562 with C-terminal di-tag3 in the same assay as above.
Description: as §2
B1 gave a Kd of 0.043 nM, a koff of 1.9e-05 s⁻¹ and a kon of 440000 M⁻¹ s⁻¹.

These binders were tested against T1, cytochrome b562 with C-terminally fused … (assay: affinity chromatography, overloaded Sepharose column, washed, biotin elution).
B2 was tested, and the “Retained Cytb562-StrepII” value was 289 µg, the “Retained Cytb562-StrepII per immobilized mutein” value was 0.2 µg/µg and the “Retained Cytb562-StrepII per immobilized mutein relative to mutein “1”” value was 155%. In the case of B3, the “Retained Cytb562-StrepII” value is reported as 350 µg, the “Retained Cytb562-StrepII per immobilized mutein” value is reported as 0.28 µg/µg and the “Retained Cytb562-StrepII per immobilized mutein relative to mutein “1”” value is reported as 221%. In the case of B4, the “Retained Cytb562-StrepII” value is reported as 400 µg, the “Retained Cytb562-StrepII per immobilized mutein” value is reported as 0.28 µg/µg and the “Retained Cytb562-StrepII per immobilized mutein relative to mutein “1”” value is reported as 225%. In the case of B5, the “Retained Cytb562-StrepII” value is reported as 390 µg, the “Retained Cytb562-StrepII per immobilized mutein” value is reported as 0.25 µg/µg and the “Retained Cytb562-StrepII per immobilized mutein relative to mutein “1”” value is reported as 197%. B6 was tested, and the “Retained Cytb562-StrepII” value was 358 µg, the “Retained Cytb562-StrepII per immobilized mutein” value was 0.29 µg/µg and the “Retained Cytb562-StrepII per immobilized mutein relative to mutein “1”” value was 229%. For B7, the “Retained Cytb562-StrepII” value was 111 µg, the “Retained Cytb562-StrepII per immobilized mutein” value was 0.14 µg/µg and the “Retained Cytb562-StrepII per immobilized mutein relative to mutein “1”” value was 111%. B8 was tested, and the “Retained Cytb562-StrepII” value was 175 µg, the “Retained Cytb562-StrepII per immobilized mutein” value was 0.16 µg/µg and the “Retained Cytb562-StrepII per immobilized mutein relative to mutein “1”” value was 127%. B9 was tested, and the “Retained Cytb562-StrepII” value was 318 µg, the “Retained Cytb562-StrepII per immobilized mutein” value was 0.31 µg/µg and the “Retained Cytb562-StrepII per immobilized mutein relative to mutein “1”” value was 246%. In the case of B10, the “Retained Cytb562-StrepII” value is reported as 429 µg, the “Retained Cytb562-StrepII per immobilized mutein” value is reported as 0.32 µg/µg and the “Retained Cytb562-StrepII per immobilized mutein relative to mutein “1”” value is reported as 254%. With B11 the “Retained Cytb562-StrepII” value was 479 µg, the “Retained Cytb562-StrepII per immobilized mutein” value was 0.31 µg/µg and the “Retained Cytb562-StrepII per immobilized mutein relative to mutein “1”” value was 245%. For B12, the “Retained Cytb562-StrepII” value was 564 µg, the “Retained Cytb562-StrepII per immobilized mutein” value was 0.35 µg/µg and the “Retained Cytb562-StrepII per immobilized mutein relative to mutein “1”” value was 280%. For B14, the “Retained Cytb562-StrepII” value was 472 µg, the “Retained Cytb562-StrepII per immobilized mutein” value was 0.39 µg/µg and the “Retained Cytb562-StrepII per immobilized mutein relative to mutein “1”” value was 308%.

Each binder was assayed against T1, cytochrome b562 with C-terminally fused … (assay: affinity chromatography, capture from dilute solution (500 µg applied, 1 mg mutein)).
For B2, the “yield of Cytb562-StrepII applied” value was 47%. B3 was tested, and the “yield of Cytb562-StrepII applied” value was 63%. In the case of B4, the “yield of Cytb562-StrepII applied” value is reported as 57%. For B5, the “yield of Cytb562-StrepII applied” value was 47%. With B6 the “yield of Cytb562-StrepII applied” value was 55%. With B7 the “yield of Cytb562-StrepII applied” value was 31%. For B8, the “yield of Cytb562-StrepII applied” value was 34%. For B9, the “yield of Cytb562-StrepII applied” value was 67%. For B10, the “yield of Cytb562-StrepII applied” value was 61%. In the case of B11, the “yield of Cytb562-StrepII applied” value is reported as 60%. B12 was tested, and the “yield of Cytb562-StrepII applied” value was 64%. For B14, the “yield of Cytb562-StrepII applied” value was 67%.

The binders below were run against T1, cytochrome b562 with C-terminally fused … (assay: affinity chromatography, retention after overload; tied to m45 by Table 9 (308 % against 11 %)).
B14 was tested, and the “retained Cytb562-StrepII relative to wt streptavidin” value was 28 fold.
